{"source": "patent US20240190962A1", "about": "(IMMUNOWAKE, published 2024)"}
{"target": "human IL-12 receptor complex (IL-12Rβ1, IL-12Rβ2) (human, UniProt P42701 24-662; Q99665 24-862)", "sequence (Q99665 24-862, chain 2 of 2, other chains not shown)": "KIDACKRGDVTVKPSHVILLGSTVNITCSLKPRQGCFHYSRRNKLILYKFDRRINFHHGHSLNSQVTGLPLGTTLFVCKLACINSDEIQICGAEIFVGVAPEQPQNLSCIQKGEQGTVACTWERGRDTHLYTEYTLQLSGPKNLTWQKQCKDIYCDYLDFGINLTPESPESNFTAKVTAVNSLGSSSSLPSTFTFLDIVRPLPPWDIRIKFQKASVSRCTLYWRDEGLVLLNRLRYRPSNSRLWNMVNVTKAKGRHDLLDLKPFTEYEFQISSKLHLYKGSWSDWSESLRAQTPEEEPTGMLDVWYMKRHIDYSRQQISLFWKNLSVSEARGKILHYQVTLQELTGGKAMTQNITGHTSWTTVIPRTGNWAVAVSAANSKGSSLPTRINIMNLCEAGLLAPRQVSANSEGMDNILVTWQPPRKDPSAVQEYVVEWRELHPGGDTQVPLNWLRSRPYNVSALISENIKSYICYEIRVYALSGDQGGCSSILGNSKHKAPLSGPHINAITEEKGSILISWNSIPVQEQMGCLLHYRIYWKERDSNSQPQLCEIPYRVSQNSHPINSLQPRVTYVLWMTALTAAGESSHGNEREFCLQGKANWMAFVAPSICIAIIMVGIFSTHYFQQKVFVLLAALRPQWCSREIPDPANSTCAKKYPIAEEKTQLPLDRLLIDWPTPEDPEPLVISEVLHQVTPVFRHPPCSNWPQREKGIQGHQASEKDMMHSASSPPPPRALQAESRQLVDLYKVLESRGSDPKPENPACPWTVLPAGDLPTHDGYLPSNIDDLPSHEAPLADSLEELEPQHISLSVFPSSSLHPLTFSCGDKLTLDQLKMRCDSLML", "experiment": "cell-based or functional assay", "units": {"IL-12 biological activity, HEK-IL-12": "%", "IL-12 biological activity, HEK-IL-12-PD-1 (high)": "%", "IL-12 biological activity, HEK-IL-12-PD-1 (low)": "%", "PBMC (IFN-γ ng/ml)": "ng/mL"}}
{"binder": "IL-12(E59A/F60A)/anti-PD-1(D100N) (other) light: not shown heavy 1: QVQLVESGGGVVQPGRSLRLDCKASGITFSNSGMHWVRQAPGKGLEWVAVIWYDGSKRYYADSVKGRFTISRDNSKNTLFLQMNSLRAEDTAVYYCATNNDYWGQGTLVTVSSASTKGPSVFPLAPSSKSTSGGTAALGCLVKDYFPEPVTVSWNSGALTSGVHTFPAVLQSSGLYSLSSVVTVPSSSLGTQTYICNVNHKPSNTKVDKKVEPKSCDKTHTCPPCPAPEKKGGPSVFLFPPKPKDTLMISRTPEVTCVVVDVSHEDPEVKFNWYVDGVEVHNAKTKPREEQYNSTYRVVSVLTVLHQDWLNGKEYKCKVSNKALPAPIEKTISKAKGQPREPQVYVLPPSREEMTKNQVSLLCLVKGFYPSDIAVEWESNGQPENRYMTWPPVLDSDGSFFLYSKLTVDKSRWQQGNVFSCSVMHEALHNHYTQKSLSLSPGK heavy 2: QVQLVESGGGVVQPGRSLRLDCKASGITFSNSGMHWVRQAPGKGLEWVAVIWYDGSKRYYADSVKGRFTISRDNSKNTLFLQMNSLRAEDTAVYYCATNNDYWGQGTLVTVSSASTKGPSVFPLAPSSKSTSGGTAALGCLVKDYFPEPVTVSWNSGALTSGVHTFPAVLQSSGLYSLSSVVTVPSSSLGTQTYICNVNHKPSNTKVDKKVEPKSCDKPGSGIWELKKDVYVVELDWYPDAPGEMVVLTCDTPEEDGITWTLDQSSEVLGSGKTLTIQVKAAGDAGQYTCHKGGEVLSHSLLLLHKKEDGIWSTDILKDQKEPKNKTFLRCEAKNYSGRFTCWWLTTISTDLTFSVKSSRGSSDPQGVTCGAATLSAERVRGDNKEYEYSVECQEDSACPAAEESLPIEVMVDAVHKLKYENYTSSFFIRDIIKPDPPKNLQLKPLKNSRQVEVSWEYPDTWSTPHSYFSLTFCVQVQGKSKREKKDRVFTDKTSATVICRKNASISVRAQDRYYSSSWSEWASVPCSGGGGSGGGGSGGGGSGGGGSGRNLPVATPDPGMFPCLHHSQNLLRAVSNMLQKARQTLEFYPCTSEEIDHEDITKDKTSTVEACLPLELTKNESCLNSRETSFITNGSCLASRKTSFMMALCLSSIYEDLKMYQVEFKTMNAKLLMDPKRQIFLDQNMLAVIDELMQALNFNSETVPQKSSLEEPDFYKTKIKLCILLHAFRIRAVTIDRVMSYLNASDKTHTCPPCPAPEDEGGPSVFLFPPKPKDTLMISRTPEVTCVVVDVSHEDPEVKFNWYVDGVEVHNAKTKPREEQYNSTYRVVSVLTVLHQDWLNGKEYKCKVSNKALPAPIEKTISKAKGQPREPQVYVYPPSREEMTKNQVSLTCLVKGFYPSDIAVEWESNGQPENNYKTTPPVLDEDGSFALVSKLTVDKSRWQQGNVFSCSVMHEALHNHYTQKSLSLSPGK", "IL-12 biological activity, HEK-IL-12": "< 0.2", "IL-12 biological activity, HEK-IL-12-PD-1 (high)": 38, "IL-12 biological activity, HEK-IL-12-PD-1 (low)": 33, "PBMC (IFN-γ ng/ml)": 820}
{"binder": "IL-12(E59A/F60A)/anti-PD-1(D100R) (other) light: not shown heavy 1: QVQLVESGGGVVQPGRSLRLDCKASGITFSNSGMHWVRQAPGKGLEWVAVIWYDGSKRYYADSVKGRFTISRDNSKNTLFLQMNSLRAEDTAVYYCATNRDYWGQGTLVTVSSASTKGPSVFPLAPSSKSTSGGTAALGCLVKDYFPEPVTVSWNSGALTSGVHTFPAVLQSSGLYSLSSVVTVPSSSLGTQTYICNVNHKPSNTKVDKKVEPKSCDKTHTCPPCPAPEKKGGPSVFLFPPKPKDTLMISRTPEVTCVVVDVSHEDPEVKFNWYVDGVEVHNAKTKPREEQYNSTYRVVSVLTVLHQDWLNGKEYKCKVSNKALPAPIEKTISKAKGQPREPQVYVLPPSREEMTKNQVSLLCLVKGFYPSDIAVEWESNGQPENRYMTWPPVLDSDGSFFLYSKLTVDKSRWQQGNVFSCSVMHEALHNHYTQKSLSLSPGK heavy 2: QVQLVESGGGVVQPGRSLRLDCKASGITFSNSGMHWVRQAPGKGLEWVAVIWYDGSKRYYADSVKGRFTISRDNSKNTLFLQMNSLRAEDTAVYYCATNRDYWGQGTLVTVSSASTKGPSVFPLAPSSKSTSGGTAALGCLVKDYFPEPVTVSWNSGALTSGVHTFPAVLQSSGLYSLSSVVTVPSSSLGTQTYICNVNHKPSNTKVDKKVEPKSCDKPGSGIWELKKDVYVVELDWYPDAPGEMVVLTCDTPEEDGITWTLDQSSEVLGSGKTLTIQVKAAGDAGQYTCHKGGEVLSHSLLLLHKKEDGIWSTDILKDQKEPKNKTFLRCEAKNYSGRFTCWWLTTISTDLTFSVKSSRGSSDPQGVTCGAATLSAERVRGDNKEYEYSVECQEDSACPAAEESLPIEVMVDAVHKLKYENYTSSFFIRDIIKPDPPKNLQLKPLKNSRQVEVSWEYPDTWSTPHSYFSLTFCVQVQGKSKREKKDRVFTDKTSATVICRKNASISVRAQDRYYSSSWSEWASVPCSGGGGSGGGGSGGGGSGGGGSGRNLPVATPDPGMFPCLHHSQNLLRAVSNMLQKARQTLEFYPCTSEEIDHEDITKDKTSTVEACLPLELTKNESCLNSRETSFITNGSCLASRKTSFMMALCLSSIYEDLKMYQVEFKTMNAKLLMDPKRQIFLDQNMLAVIDELMQALNFNSETVPQKSSLEEPDFYKTKIKLCILLHAFRIRAVTIDRVMSYLNASDKTHTCPPCPAPEDEGGPSVFLFPPKPKDTLMISRTPEVTCVVVDVSHEDPEVKFNWYVDGVEVHNAKTKPREEQYNSTYRVVSVLTVLHQDWLNGKEYKCKVSNKALPAPIEKTISKAKGQPREPQVYVYPPSREEMTKNQVSLTCLVKGFYPSDIAVEWESNGQPENNYKTTPPVLDEDGSFALVSKLTVDKSRWQQGNVFSCSVMHEALHNHYTQKSLSLSPGK", "IL-12 biological activity, HEK-IL-12": "< 0.2", "IL-12 biological activity, HEK-IL-12-PD-1 (high)": 10, "IL-12 biological activity, HEK-IL-12-PD-1 (low)": 3, "PBMC (IFN-γ ng/ml)": 69}
{"binder": "IL-12(E59A/F60A)/anti-PD-1(D100G) (other) light: not shown heavy 1: QVQLVESGGGVVQPGRSLRLDCKASGITFSNSGMHWVRQAPGKGLEWVAVIWYDGSKRYYADSVKGRFTISRDNSKNTLFLQMNSLRAEDTAVYYCATNGDYWGQGTLVTVSSASTKGPSVFPLAPSSKSTSGGTAALGCLVKDYFPEPVTVSWNSGALTSGVHTFPAVLQSSGLYSLSSVVTVPSSSLGTQTYICNVNHKPSNTKVDKKVEPKSCDKTHTCPPCPAPEKKGGPSVFLFPPKPKDTLMISRTPEVTCVVVDVSHEDPEVKFNWYVDGVEVHNAKTKPREEQYNSTYRVVSVLTVLHQDWLNGKEYKCKVSNKALPAPIEKTISKAKGQPREPQVYVLPPSREEMTKNQVSLLCLVKGFYPSDIAVEWESNGQPENRYMTWPPVLDSDGSFFLYSKLTVDKSRWQQGNVFSCSVMHEALHNHYTQKSLSLSPGK heavy 2: QVQLVESGGGVVQPGRSLRLDCKASGITFSNSGMHWVRQAPGKGLEWVAVIWYDGSKRYYADSVKGRFTISRDNSKNTLFLQMNSLRAEDTAVYYCATNGDYWGQGTLVTVSSASTKGPSVFPLAPSSKSTSGGTAALGCLVKDYFPEPVTVSWNSGALTSGVHTFPAVLQSSGLYSLSSVVTVPSSSLGTQTYICNVNHKPSNTKVDKKVEPKSCDKPGSGIWELKKDVYVVELDWYPDAPGEMVVLTCDTPEEDGITWTLDQSSEVLGSGKTLTIQVKAAGDAGQYTCHKGGEVLSHSLLLLHKKEDGIWSTDILKDQKEPKNKTFLRCEAKNYSGRFTCWWLTTISTDLTFSVKSSRGSSDPQGVTCGAATLSAERVRGDNKEYEYSVECQEDSACPAAEESLPIEVMVDAVHKLKYENYTSSFFIRDIIKPDPPKNLQLKPLKNSRQVEVSWEYPDTWSTPHSYFSLTFCVQVQGKSKREKKDRVFTDKTSATVICRKNASISVRAQDRYYSSSWSEWASVPCSGGGGSGGGGSGGGGSGGGGSGRNLPVATPDPGMFPCLHHSQNLLRAVSNMLQKARQTLEFYPCTSEEIDHEDITKDKTSTVEACLPLELTKNESCLNSRETSFITNGSCLASRKTSFMMALCLSSIYEDLKMYQVEFKTMNAKLLMDPKRQIFLDQNMLAVIDELMQALNFNSETVPQKSSLEEPDFYKTKIKLCILLHAFRIRAVTIDRVMSYLNASDKTHTCPPCPAPEDEGGPSVFLFPPKPKDTLMISRTPEVTCVVVDVSHEDPEVKFNWYVDGVEVHNAKTKPREEQYNSTYRVVSVLTVLHQDWLNGKEYKCKVSNKALPAPIEKTISKAKGQPREPQVYVYPPSREEMTKNQVSLTCLVKGFYPSDIAVEWESNGQPENNYKTTPPVLDEDGSFALVSKLTVDKSRWQQGNVFSCSVMHEALHNHYTQKSLSLSPGK", "IL-12 biological activity, HEK-IL-12": "< 0.2", "IL-12 biological activity, HEK-IL-12-PD-1 (high)": 33, "IL-12 biological activity, HEK-IL-12-PD-1 (low)": 17, "PBMC (IFN-γ ng/ml)": 120}
